{
  "source": "paper PMC3050036",
  "target": "presenilin-1 (wild-type PS1) (UniProt P49768)",
  "assay": "FRET or BRET",
  "data": [
    {"substance": "V5-tagged ubiquilin-1 transcript variant 3 (TV3) (natural protein)", "values": [
      {"measurement": "Alexa 430 donor lifetime with Cy3 acceptor on PS1 CT", "result": 1350, "unit": "psec"},
      {"measurement": "FRET strength", "result": 0.3}
    ]}
  ]
}
